Source: article PMC10902388

How the values were obtained:
E6AP-Nanoluc (human) [1] = biological target: E6AP-Nanoluc (human) (UniProt Q05086); assay: SPR
E6AP-Nanoluc (human) [2] = biological target: E6AP-Nanoluc (human) (UniProt Q05086); assay: FRET or BRET

Chain of E6AP-Nanoluc (human) (Q05086 whole entry): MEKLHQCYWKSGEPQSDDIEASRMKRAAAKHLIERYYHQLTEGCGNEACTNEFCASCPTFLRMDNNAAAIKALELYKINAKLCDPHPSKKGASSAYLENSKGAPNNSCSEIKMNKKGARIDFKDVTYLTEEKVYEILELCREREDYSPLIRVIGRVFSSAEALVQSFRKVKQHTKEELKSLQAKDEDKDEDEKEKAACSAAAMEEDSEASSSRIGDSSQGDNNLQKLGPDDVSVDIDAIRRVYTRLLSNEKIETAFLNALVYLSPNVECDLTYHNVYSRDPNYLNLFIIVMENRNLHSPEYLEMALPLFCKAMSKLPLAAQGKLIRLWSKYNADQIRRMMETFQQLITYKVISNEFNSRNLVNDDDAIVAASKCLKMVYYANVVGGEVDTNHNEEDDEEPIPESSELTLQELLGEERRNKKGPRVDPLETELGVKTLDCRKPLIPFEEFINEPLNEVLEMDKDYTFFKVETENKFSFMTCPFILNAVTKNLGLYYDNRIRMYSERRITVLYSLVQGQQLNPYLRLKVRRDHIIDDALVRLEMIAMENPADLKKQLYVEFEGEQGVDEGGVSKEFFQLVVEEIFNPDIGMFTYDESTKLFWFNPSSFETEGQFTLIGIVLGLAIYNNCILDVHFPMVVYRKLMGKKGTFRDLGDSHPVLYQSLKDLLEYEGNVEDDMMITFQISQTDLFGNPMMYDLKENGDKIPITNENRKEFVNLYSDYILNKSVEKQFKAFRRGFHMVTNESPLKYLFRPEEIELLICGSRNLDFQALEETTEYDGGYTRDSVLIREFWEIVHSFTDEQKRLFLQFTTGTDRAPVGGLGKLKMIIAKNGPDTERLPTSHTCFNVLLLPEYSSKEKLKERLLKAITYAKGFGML

Substance: MBP-16E6-HaloTag protein (from UniProt P03126) (natural protein)
- Kd (E6AP-Nanoluc (human) [1]): 4 nM
- Kd (E6AP-Nanoluc (human) [2]): 15.3 nM
